Where two headings read alike, the source gives them in different places.
Columns and labels:
[1] = target: T1, L1 (DV1-GV4), soluble human Vδ1/Vγ4 γδ TCR heterodimer in leucine zipper format (human); assay: DELFIA, 100 nM biotinylated L1
T1 construct: Biotinylated in the DELFIA ranking; also called Antigen L1 (TRDV1/TRGV4); human DV1-GV4; not shown: gamma chain: Vγ4 (TRGV4) domain on a TCR constant region, leucine zipper, histidine tag

[2] = target: Vδ1 chain of the γδ TCR on human Vδ1 γδ T cells (human); assay: cell-based or functional assay
[3] = target: T2, Vδ1 chain of the γδ TCR on human Vδ1 γδ T cells (human); assay: flow cytometry, Vδ1 γδ T cells of donor TS164, mAb titrated up to about 500 nM at 4 C, anti-human IgG detection
T2 construct: whole, on cells; also called cell surface Vδ1 TCR; Vδ1-positive γδ T cells
T2 sequence (A0A1B0GX56 22-115, stated change not applied): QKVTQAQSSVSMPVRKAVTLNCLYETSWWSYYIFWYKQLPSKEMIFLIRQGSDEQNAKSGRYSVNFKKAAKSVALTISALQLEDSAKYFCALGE
Description: (§1) All incubation steps were performed at 4° C. and mAb binding was determined using flow cytometry to measure the median level of fluorescence. Logarithmic four parameter dose-response curves were fitted using GraphPad Prism 9. […] For Vδ1-positive γδ T cell, data is represented as the mean two donors.
(§2) A range of target cells were assayed to determine the specificity and affinity of Vδ1 mAb binding. This included expanded skin-derived Vδ1 γδ T-cells, HEK293T cells, Raji cells, and multiple leukocyte subsets within human primary blood mononuclear cells. Adherent or semi-adherent cells (skin-derived Vδ1 γδ T-cells, HEK293T) were detached from tissue culture flask and resuspended in PBS. Similarly, non-adherent cell types (Raji, PBMC), were harvested and resuspended in PBS. Cells were seeded at a final density of 100,000 cells per well in v-bottom 96-well plates. Cells underwent centrifugation and the cell pellets were resuspended in FcR blocking reagent according to the manufacturer's instructions, and incubated for 20 minutes at 4C prior to a further wash. […] To determine the quantity of mAb bound to the cell surface, the cells were then stained with a murine anti-human IgG secondary antibody, conjugated to APC (dilution: 1:100). For Vδ1 γδ T-cells, HEK293T and Raji, the cells were also stained solely with a viability dye.

[4] = target: T1, L1 (DV1-GV4), soluble human Vδ1/Vγ4 γδ …; assay: DELFIA ELISA, human antigen; heat map cell of the clone
[5] = target: T2, Vδ1 chain of the γδ TCR on human Vδ1 γδ …; assay: flow cytometry binding to Vδ1 γδ T cells, donor TS164; column head printed 'IC50', unit nM from the chart axis and FIG. 34D
Description: as §1, §2

[6] = target: T1, L1 (DV1-GV4), soluble human Vδ1/Vγ4 γδ …; assay: SPR (Reichert 4SPR), antibody on Protein A chip, human Vδ1 antigen as analyte; average of two replicates on two instruments
Excerpt: The binding affinity of the antibodies to target (i.e. the Vδ1 chain of a γδ TCR) is established by SPR analysis using a Reichert 4SPR instrument (Reichert Technologies).
The binding interaction of Vδ1 and the affinity-matured mAbs were modelled according to Langmuir 1:1 binding.

[7] = target: T2, Vδ1 chain of the γδ TCR on human Vδ1 γδ …; assay: flow cytometry binding to Vδ1 γδ T cells, donor ATS006; column head printed 'IC50', unit nM from the chart axis and FIG. 34D
Description: as §1, §2

[8] = target: T2, Vδ1 chain of the γδ TCR on human Vδ1 γδ …; assay: flow cytometry, Vδ1 γδ T cells of donor ATS006, mAb titrated up to about 500 nM at 4 C, anti-human IgG detection
Description: as §1, §2

[9] = target: T2, Vδ1 chain of the γδ TCR on human Vδ1 γδ …; assay: cell-based or functional assay; remark: listed apart in the source
[10] = target: T2, Vδ1 chain of the γδ TCR on human Vδ1 γδ …; assay: cell-based or functional assay; remark: listed apart in the source
[11] = target: T2, Vδ1 chain of the γδ TCR on human Vδ1 γδ …; assay: flow cytometry on Vδ1 γδ T-cells, anti-human IgG secondary antibody, % cells bound IgG
[12] = target: T1, L1 (DV1-GV4), soluble human Vδ1/Vγ4 γδ …; assay: SPR (Reichert 4SPR), antibody on Protein A chip, antigen flown over
Description: Recombinant human Vδ1 heterodimer or human 4-1BB was flown over the cell at a top concentration of 100 nM.

[13] = target: T2, Vδ1 chain of the γδ TCR on human Vδ1 γδ …; assay: cell-based or functional assay; remark: listed apart in the source
[14] = target: 4-1BB on 4-1BB+ NFAT Jurkat cells (human, UniProt Q07011); assay: cell-based or functional assay
4-1BB on 4-1BB+ NFAT Jurkat cells, sequence (Q07011 24-255 limits assumed): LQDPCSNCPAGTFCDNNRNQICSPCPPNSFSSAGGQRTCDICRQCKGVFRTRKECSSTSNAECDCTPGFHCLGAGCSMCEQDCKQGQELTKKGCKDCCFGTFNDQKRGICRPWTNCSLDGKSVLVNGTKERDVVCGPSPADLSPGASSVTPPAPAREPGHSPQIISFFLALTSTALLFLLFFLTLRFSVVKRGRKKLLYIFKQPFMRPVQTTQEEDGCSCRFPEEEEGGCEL

[15] = target: T2, Vδ1 chain of the γδ TCR on human Vδ1 γδ …; assay: cell-based or functional assay; remark: listed apart in the source
[16] = target: T2, Vδ1 chain of the γδ TCR on human Vδ1 γδ …; assay: cell-based or functional assay; remark: listed apart in the source
[17] = target: T3, Cyno DV1/GV77 antigen, recombinant cynomolgus Vδ1 heterodimer (cynomolgus monkey); assay: SPR (Reichert 4SPR), antibody on Protein A chip, Vδ1 heterodimer at 6.25-100 nM as analyte
T3 construct: also called cyno TRDV1; Cyno DV1-77; not shown: delta CDR3/J, TCR constant region, zipper and tag; the whole gamma chain GV77
T3 sequence (delta, as listed by the source limits assumed): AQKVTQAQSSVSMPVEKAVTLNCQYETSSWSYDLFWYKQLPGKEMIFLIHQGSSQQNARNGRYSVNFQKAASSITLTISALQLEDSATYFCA

[18] = target: T1, L1 (DV1-GV4), soluble human Vδ1/Vγ4 γδ …; assay: as above
[19] = target: T3, Cyno DV1/GV77 antigen, recombinant …; assay: SPR (Reichert 4SPR), antibody on Protein A chip

T1 sequence (main, as listed by the source): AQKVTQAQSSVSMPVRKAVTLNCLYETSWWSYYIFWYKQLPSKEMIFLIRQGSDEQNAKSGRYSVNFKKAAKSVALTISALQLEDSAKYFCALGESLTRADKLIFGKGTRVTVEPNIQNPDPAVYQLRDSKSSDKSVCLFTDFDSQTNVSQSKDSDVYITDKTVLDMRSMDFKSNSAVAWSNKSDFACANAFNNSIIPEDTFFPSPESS

B1: 1251_P02_G10 (antibody, IgG1, V domains shown)
VH: EVQLVESGGGLVQPGGSLRLSCAASGFTFSDYYMSWIRQAPGKGLEWVSYISSSGSTIYYADSVKGRFTISRDNAKNSLYLQMNSLRAEDTAVYYCARHSWNDAFDIWGRGTLVTVSS
VL: DIQMTQSPSSLSASVGDRVTITCRASQSISSHLNWYQQKPGKAPKLLIYAASSLQSGVPSRFSASGSGTDFTLTISSLQPEDFATYYCQQSYSTLLTFGGGTKVEIK
notes: IgG1
[1]
  DELFIA signal at 100 nM L1: 17100 fluorescence units
[2]
  TCR downregulation (EC50 µg/ml-3 donors): 0.849 µg/mL

B2: ADT1-7-3 (antibody, IgG1, V domains shown)
VH: EVQLVESGGGLVKPGGSLRLSCAASGFTFSDYYMSWIRQAPGKGLEWVSYISSSGSTIYYADSVKGRFTISRDNAKNSLYLQMNSLRAEDTAVYYCARVSYAEAFDIWGQGTLVTVSS
VL: DIQMTQSPSSLSASVGDRVTIACRAGQSIGTYLNWYQQKPGKAPKLLIYVASSLQSGVPSRFSGSGSGTEFTLTISSLQPEDFATYYCQQSYSGLDTFGRGTKVEIK
notes: IgG1
[3]
  EC50 (read off the curve): ~1 nM
[4]
  ELISA signal (heat map): 37100
[5]
  EC50: 0.952 nM
[6]
  Kd: 3.78 nM
[7]
  EC50: 5.15 nM
[8]
  EC50 (read off the curve): ~5 nM
[9]
  IC50 TCR DR (no THP-1): 0.161 nM
  IC90 TCR DR (noTHP-1): 0.79 nM

B3: 1245_P01_E07 (antibody, IgG1, V domains shown)
VH: QVQLVESGGGLVKPGGSLRLSCAASGFTFSDYYMSWIRQAPGKGLEWVSYISSSGSTIYYADSVKGRFTISRDNAKNSLYLQMNSLRAEDTAVYYCARVDYADAFDIWGQGTLVTVSS
VL: DIQMTQSPSSLSASVGDRVTIACRAGQSIGTYLNWYQQKPGKAPKLLIYVASSLQSGVPSRFSGSGSGTEFTLTISSLQPEDFATYYCQQSYSTLLTFGRGTKVEIK
notes: also called ADT1-7; parental ADT1-7
[1]
  DELFIA signal at 100 nM L1: 163000 fluorescence units
[4]
  ELISA signal (heat map): 5470
[5]
  EC50: 226 nM
[6]
  Kd: 38.1 nM
[7]
  EC50: > 100 nM
[9]
  IC50 TCR DR (no THP-1): 22.4 nM
  IC90 TCR DR (noTHP-1): 139 nM

B4: 1245_P01_B07 (antibody, IgG1, V domains shown)
VH: EVQLLESGGGLVKPGGSLRLSCAASGFTFSDYYMSWIRQAPGKGLEWVSYISSSGSTIYYADSVKGRFTISRDNAKNSLYLQMNSLRAEDTAVYYCARENYLNAFDIWGRGTLVTVSS
VL: DIQMTQSPSSLSASVGDRVTITCRTSQSLSNYLNWYQQKPGKAPKLLIYAASSLQSGVPSRFSGSGSGTDFTLTISSLQPEDFATYYCQQSYSTPLTFGGGTKLEIK
notes: IgG1
[1]
  DELFIA signal at 100 nM L1: 64300 fluorescence units
[2]
  TCR downregulation (EC50 µg/ml), 1 donor only: 0.35 µg/mL

B5: ADT1-7-20 (antibody, IgG1, V domains shown)
VH: EVQLVESGGGLVKPGGSLRLSCAASGFTFSDYYMSWIRQAPGKGLEWVSYISSSGSTIYYADSVKGRFTISRDNAKNSLYLQMNSLRAEDTAVYYCARVDYQEAFDIWGQGTLVTVSS
VL: DIQMTQSPSSLSASVGDRVTIACRAGQSIGTYLNWYQQKPGKAPKLLIYVASSLQSGVPSRFSGSGSGTEFTLTISSLQPEDFATYYCQQSYSGLDTFGRGTKVEIK
notes: IgG1
[4]
  ELISA signal (heat map): 30800
[5]
  EC50: 2.68 nM
[6]
  Kd: 4.99 nM
[7]
  EC50: 37.2 nM
[9]
  IC50 TCR DR (no THP-1): 0.164 nM
  IC90 TCR DR (noTHP-1): 1.04 nM

B6: ADT1-7-61 (antibody, IgG1, V domains shown)
VH: EVQLVESGGGLVKPGGSLRLSCAASGFTFSDYYMSWIRQAPGKGLEWVSYISSSGSTIYYADSVKGRFTISRDNAKNSLYLQMNSLRAEDTAVYYCARDDYDDAFDIWGQGTLVTVSS
VL: DIQMTQSPSSLSASVGDRVTIACRAGQSIGTYLNWYQQKPGKAPKLLIYVASSLQSGVPSRFSGSGSGTEFTLTISSLQPEDFATYYCQQSASELLTFGRGTKVEIK
notes: IgG1
[10]
  IC50 of TCR downregulation (Vδ1 TCR staining as % MFI, soluble antibody, 2 h, average of two γδ cell donors): 6.26 nM
[4]
  ELISA signal (heat map): 32700
[5]
  EC50: 196 nM
[6]
  Kd: 1.04 nM
[7]
  EC50: 93 nM
[9]
  IC50 TCR DR (no THP-1), one donor only: 0.173 nM

B7: Anti-Vδ1xanti-4-1BB (ADT1-4-2xutomilumab) bispecific antibody (bispecific antibody, human IgG1, kappa)
light: DIQMTQSPPALSASVGDRVTITCRASQDINDWLAWYQHKPGKAPKLLIYDASSLESGVPLRFSGSGSGTEFTLTISSLQPDDFATYYCQQKYSAPQVTFGQGTRLEIKRTVAAPSVFIFPPSDEQLKSGTASVVCLLNNFYPREAKVQWKVDNALQSGNSQESVTEQDSKDSTYSLSSTLTLSKADYEKHKVYACEVTHQGLSSPVTKSFNRGEC
heavy: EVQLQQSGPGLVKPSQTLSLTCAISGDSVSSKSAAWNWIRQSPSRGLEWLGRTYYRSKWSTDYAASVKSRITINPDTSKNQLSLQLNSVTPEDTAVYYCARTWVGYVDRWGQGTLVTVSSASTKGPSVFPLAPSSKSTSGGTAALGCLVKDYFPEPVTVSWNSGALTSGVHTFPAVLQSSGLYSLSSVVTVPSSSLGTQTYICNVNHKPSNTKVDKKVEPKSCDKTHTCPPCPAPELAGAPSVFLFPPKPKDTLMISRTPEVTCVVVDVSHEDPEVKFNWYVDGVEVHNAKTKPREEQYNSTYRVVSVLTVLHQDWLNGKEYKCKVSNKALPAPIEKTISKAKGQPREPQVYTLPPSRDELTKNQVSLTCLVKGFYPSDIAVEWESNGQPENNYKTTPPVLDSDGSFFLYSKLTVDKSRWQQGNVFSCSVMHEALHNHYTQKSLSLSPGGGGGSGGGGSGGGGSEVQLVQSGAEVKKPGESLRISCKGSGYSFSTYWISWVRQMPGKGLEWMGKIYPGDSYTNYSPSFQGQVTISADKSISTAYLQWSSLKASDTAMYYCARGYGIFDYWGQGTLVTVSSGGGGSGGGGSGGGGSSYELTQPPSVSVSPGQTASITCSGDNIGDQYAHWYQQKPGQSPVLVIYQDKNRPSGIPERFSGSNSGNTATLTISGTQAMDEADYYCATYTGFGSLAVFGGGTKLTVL
notes: also called ADT1-4-2x 4-1BB; Vδ1-4-1BB bispecific antibody
[11]
  EC50 (read off the curve): ~0.3 nM
[12]
  Kd: 1.2 nM
[13]
  IC50 (read off the curve), Vδ1 TCR downregulation, γδ T-cells alone: ~0.2 nM
[14]
  EC50 (read off the curve), 4-1BB+ NFAT Jurkat activation assay: 10 to 20 nM
[15]
  IC50 (read off the curve), Vδ1 TCR downregulation, γδ T-cells with activated 4-1BB+ CD8 T-cells: ~0.1 nM

B8: ADT1-4-86 (antibody, IgG1, V domains shown)
VH: EVQLQQSGPGLVKPSQTLSLTCAISGDSVSSKSVAWNWIRQSPSRGLEWLGRTYYRSKWSTDYAASVKSRITINPDTSKNQLSLQLNSVTPEDTAVYYCARTWLGNVDVWGQGTLVTVSS
VL: DIQMTQSPPALSASVGDRVTITCRASQDINDWLAWYQHKPGKAPKLLIYDASSLESGVPLRFSGSGSGTEFTLTISSLQPDDFATYYCQQKYSEPQVTFGQGTRLEIK
[16]
  IC90 TCR DR (noTHP-1): 1 nM

B9: ADT1-4 (S74L) (antibody, V domains shown)
VH: QVQLQQSGPGLVKPSQTLSLTCAISGDSVSSKSAAWNWIRQSPSRGLEWLGRTYYRSKWSTDYAASVKSRITINPDTSKNQLSLQLNSVTPEDTAVYYCARTWSGYVDVWGQGTLVTVSS
VL: DIQMTQSPPALSASVGDRVTITCRASQDINDWLAWYQHKPGKAPKLLIYDASSLESGVPLRFSGSGSGTEFTLTISSLQPDDFATYYCQQSYSTPQVTFGQGTRLEIKR
notes: Captured on Protein A; also called ADT1-4 (574L)
[17]
  Kd: 77 nM
[18]
  Kd: 3.5 nM
[19]
  fold increase in affinity against ADT1-4: ~5 fold

B10: 1245_P01_G09 (antibody, IgG1, V domains shown)
VH: QVQLQQSGPGLVKPSQTLSLTCAISGDSVSSNSAAWNWIRQSPSRGLEWLGRTYYGSKWYNEYALSVKSRIIINPDTSKNQFSLQLNSVTPEDTAVYYCARDYYYSMDVWGQGTLVTVSS
VL: DIVMTQSPSTLSASIGDRVTITCRAGQSISTWLAWYQQKPGKAPKLLIYDASSLESGVPLRFSGSGSGTEFTLAISSLQPDDFATYYCQQSYSTPVTFGQGTKVEIK
notes: IgG1
[1]
  DELFIA signal at 100 nM L1: 18400 fluorescence units

Source: patent US20230028110A1 (ADAPTATE BIOTHERAPEUTICS, published 2023)
